Experimental findings from patent US20230220057A1 (STAIDSON BEIJING BIOPHARMACEUTICALS, published 2023) are described below.

For orientation: EC50 means the midpoint of the concentration-response curve. As usually defined, the IC50 is the midpoint of a concentration-inhibition curve. Read a high IC50 as weaker potency in that assay.

One experiment concerns the target T1, BDNF (UniProt P23560 129-247).
T1 construct: also called brain-derived neurotrophic factor
T1 sequence (looked up): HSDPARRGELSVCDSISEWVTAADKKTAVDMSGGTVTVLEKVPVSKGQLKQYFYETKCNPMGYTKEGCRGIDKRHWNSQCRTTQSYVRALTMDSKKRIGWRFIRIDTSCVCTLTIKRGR
As to the kind of experiment: ELISA. Background: In an ELISA, binding on a coated surface is turned into a signal by an enzyme label.

The next experiment has as its target T2, NT3 (UniProt P20783 139-257).
T2 construct: also called neurotrophin-3
T2 sequence (looked up): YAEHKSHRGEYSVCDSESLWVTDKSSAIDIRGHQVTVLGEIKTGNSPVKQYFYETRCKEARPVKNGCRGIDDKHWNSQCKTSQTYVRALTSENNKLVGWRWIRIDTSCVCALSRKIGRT
As to the kind of experiment: ELISA.

The next experiment has as its target T3, NT4 (UniProt P34130 81-210).
T3 construct: also called neurotrophin-4
T3 sequence (looked up): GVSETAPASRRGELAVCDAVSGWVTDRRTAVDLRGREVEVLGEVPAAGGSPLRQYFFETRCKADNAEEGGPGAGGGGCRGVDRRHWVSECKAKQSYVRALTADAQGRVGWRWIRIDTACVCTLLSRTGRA
As to the kind of experiment: ELISA.

The target in experiment [1] is T4, human NGF (R&D system) (human, UniProt P01138 122-241). As to the kind of experiment: cell-based or functional assay.
T4 sequence (P01138 122-241 limits assumed): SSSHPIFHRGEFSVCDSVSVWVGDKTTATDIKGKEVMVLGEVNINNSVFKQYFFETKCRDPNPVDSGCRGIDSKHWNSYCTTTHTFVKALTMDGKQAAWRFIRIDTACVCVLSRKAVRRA
Experiment [2] concerns the target T4, human NGF (R&D system). Put plainly: cell-based or functional assay. The source holds these as a separate data set.
Experiment [3] has as its target T4, human NGF (R&D system). Put plainly: cell-based or functional assay. The source holds these as a separate data set.
In experiment [4] the target is recombinantly produced human-NGF (human, UniProt P01138 122-241, limits assumed). Put plainly: ELISA, human NGF coated, IgG titrated. An outline of the steps:
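Plates coated overnight at 4 °C with recombinant human NGF at 1 μg/ml, blocked with PBS/1% BSA. Serially diluted purified antibodies or 1:1 supernatants bound 2 h at 37 °C; detection with AP anti-human IgG Fc (1:3000, 1 h RT), PNPP substrate, OD 405 nm.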

Experiment [5] deals with T5, human NGF-Fc4 (IgG4-Fc) (human, UniProt P01138 122-241, limits assumed).
T5 construct: not shown: human IgG4 Fc
T5 sequence (P01138 122-241 limits assumed): as above
Put plainly: competition ELISA: antibody pre-incubated with human NGF-Fc4, binding to coated p75-Fc. How it is done: p75 inhibition ELISA assay: The p75 inhibition assay was designed to identify anti-NGF antibodies that were capable of inhibiting NGF binding to p75. In this assay, human p75-Fc (IgG1-Fc, Sinobiological) was coated at 1 μg/mL in the 96-well plates and incubated overnight at 4° C. Anti-NGF antibodies, from supernatants directly or after purified, in different dilutions, were pre-incubated with human NGF-Fc4 (IgG4-Fc) at a final concentration of 350 ng/mL for 2 hours in 37° C. A total of 50 μl of the reaction mixtures were then transferred into the p75-Fc coated 96-well plates and incubated in room temperature for 2 hrs. After washing, a secondary mouse anti-human IgG4-AP (Southern biotech) was added at a dilution of 1:1000. After 1 hour in room temperature, the plates were washed, and after adding PNPP substrate, ODs at 405 nm were read.
p75 inhibition ELISA assay: The optimized anti-NGF antibodies Ab4, Ab61, and the reference antibody Tanezumab, a humanized antibody from mouse hybridoma were further analyzed for their abilities to block NGF binding to its receptor p75. P75 inhibition assay was performed as described in Example 1.

Experiment [6] has as its target T5, human NGF-Fc4 (IgG4-Fc). As to the kind of experiment: competition ELISA: antibody pre-incubated with human NGF-Fc4, binding to coated TrkA-Fc. How it is done: TrkA inhibition ELISA assay: The TrkA inhibition ELISA assay was designed to identify the anti-NGF antibodies that have the capability of blocking NGF binding to its receptor TrkA. In this assay, human TrkA-Fc (IgG1-Fc, Sinobiological) was coated at 1 μg/ml in the 96-well plates and incubated overnight at 4° C. Antibodies, from cell culture supernatants or after purified, in different dilutions, were pre-incubated with human NGF-Fc4 (IgG4-Fc) at a final concentration of 70 ng/mL for 2 hours in 37° C. A total of 50 μl of the reaction mixtures were then transferred into the TrkA-Fc coated 96-well plates and incubated in room temperature for 2 hours. After washing, a secondary mouse anti-human IgG4-AP (Southern biotech) was added at a dilution of 1:1000 After one hour in room temperature, the plates were washed, and after adding PNPP substrate, ODs at 405 nm were read.
TrkA inhibition ELISA assay: The optimized anti-NGF antibodies Ab4, Ab6, Ab10, Ab16, Ab36, Ab37, Ab44, Ab45, Ab46, Ab47, Ab48, Ab49, Ab52, Ab54, Ab55, Ab56, Ab57, Ab58, Ab59, Ab60, Ab61 and the reference antibody Tanezumab (Pfizer), a humanized antibody from mouse hybridoma were further analyzed for their abilities to block NGF binding to its receptor TrkA. TrkA inhibition assay was performed as described in Example 1.

Sequence of recombinantly produced human-NGF (P01138 122-241 limits assumed): as above

B1: Ab4 (antibody, human IgG1, V domains shown)
VH: EVQLVQSGAEVKKPGATVKISCKVSGYTFITYWISWVQQAPGKGLEWMGAIDPSDSDARYSPSFQGRVTITADTSTDTAYMELSSLRSEDTAVYYCAKSDPGYSGYSLLYGFDSWGQGTLVTVSS
VL: DVVMTQSPLSLPVTLGQPASISCRSSQSLVQRNGNTYLSWYQQRPGQSPRLLIYQVSNRYSGVPDRFSGSGSGTDFTLKISRVEAEDVGVYYCGQGAHLPLTFGQGTKVEIK
On to B1, for which the binding result with BDNF, in the experiment with NT3 and in the experiment with NT4 was “no binding (tested: 100 µg/mL)” in each case. Besides, the “TF1 Cell Proliferation Inhibition Assay IC50” value in the experiment with human NGF (R&D system) [1] was 0.174 nM. In the experiment with human NGF (R&D system) [2], the “ERK1/2 Signaling Pathway Inhibition Assay IC50 (PC12 cells)” value turned out to be 0.131 nM. Further, the “Chicken DRG Neurite Outgrowth Inhibition Assay IC50” value with human NGF (R&D system) [3] turned out to be 0.0663 nM. Besides, the EC50 in experiment [4] turned out to be 0.0124 ng/mL. Moreover, the IC50 in the experiment with human NGF-Fc4 (IgG4-Fc) [5] came out at 481 ng/mL; with human NGF-Fc4 (IgG4-Fc) [6], 74.6 ng/mL.
